We go through three molecules from PMC4130924 (Protein & Cell, 2014).

Sequences and labels used below:
B1: Human ubiquitin C-terminal hydrolase Uch37, full-length (enzyme, UniProt Q9Y5K5 1-329, looked up)
chain: MTGNAGEWCLMESDPGVFTELIKGFGCRGAQVEEIWSLEPENFEKLKPVHGLIFLFKWQPGEEPAGSVVQDSRLDTIFFAKQVINNACATQAIVSVLLNCTHQDVHLGETLSEFKEFSQSFDAAMKGLALSNSDVIRQVHNSFARQQMFEFDTKTSAKEEDAFHFVSYVPVNGRLYELDGLREGPIDLGACNQDDWISAVRPVIEKRIQKYSEGEIRFNLMAIVSDRKMIYEQKIAELQRQLAEEEPMDTDQGNSMLSAIQSEVAKNQMLIEEEVQKLKRYKIENIRRKHNYLPFIMELLKTLAEHQQLIPLVEKAKEKQNAKKAQETK
B2: Full-length Uch37 containing only one cysteine (C27), labelled with Alexa Fluor 555 and Alexa Fluor 647 (enzyme, human, UniProt Q9Y5K5 1-329, looked up)
chain: B1 chain with C9A, C88A, C100A, C191A
modifications: Cys27 conjugated to Alexa Fluor 555 or Alexa Fluor 647 (randomly)
B3: Rpn13C (Rpn13 residues 270-407) (domain or fragment, UniProt Q16186 270-407, looked up)
chain: ILATMNVPAGPAGGQQVDLASVLTPEIMAPILANADVQERLLPYLPSGESLPQTADEIQNTLTSPQFQQALGMFSAALASGQLGPLMCQFGLPAEAVEAANKGDVEAFAKAMQNNAKPEQKEGDTKDKKDEEEDMSLD

Data set [1] concerns the molecule itself. The data set can be described thus: time-resolved SAXS; stopped-flow mixing of Uch37 and Rpn13C at a 1:1 monomer molar ratio, overall 3.7 mg/mL, 8 ms to 600 s; I0 and Rg against time.
Data set [2] concerns the molecule itself. Description: FRET or BRET; Uch37 (C27 only) randomly labelled with Alexa Fluor 555 and 647, 250 nmol/L, excited at 550 nm; then an excess molar amount of Rpn13C added, 30 min. (In BRET a luciferase serves as donor, and the signal depends on an acceptor being close.)
Data set [3] has as its target B1. The data set can be described thus: SPR; Biacore3000, 25°C, PBS; Rpn13C immobilised on CM5 by amine coupling, Uch37 15.6-500 nmol/L flowed over; 1:1 Langmuir model. Particulars: both partners purified.
The target of data set [4] is B2. The data set can be described thus: FRET or BRET; Uch37 (C27 only) randomly labelled with Alexa Fluor 555 and 647, 250 nmol/L, excited at 550 nm; then an excess molar amount of Rpn13C added, 30 min. Particulars: both partners purified.

Positions count from the first letter of the chain named.

In the case of B1, in data set [1], the binding result was “binds”.

Take B2: in data set [2], the binding result was “binds”.

The term Kd denotes a measure of binding affinity in units of concentration. Low values mean tighter binding, high ones weaker binding. B3 displayed a Kd in data set [3] of 5.35 nM. Further, in data set [4], the binding result was “binds”.
